{
  "source": "paper doi:10.1101/2021.10.18.464838",
  "about": "“Two distinct classes of co-chaperones compete for the EEVD motif in heat shock protein 70 (Hsp70) to tune its activity” (bioRxiv, 2021)",
  "binders": {"B1": {"name": "Hsp72 phosphomimetic T636E tracer FITC-Ahx-GSGPEIEEVD (peptide)", "peptide": "GSGPEIEEVD-OH", "modifications": "not fully specified (N-terminus); printed as FITC-Ahx-GSGPEIEEVD", "notes": "last 10 residues of Hsp72/HSPA1A with the P6 Thr changed to Glu; also called T636E Hsp72 fluorescent tracer; P6 Thr to Glu; source: synthetic peptide, bought: GenScript"}},
  "conditions_in_all_cases": "both partners purified",
  "key": {"[1]": {"target": "T1, DnaJB4 (recombinant, human, full length, wild type) (human, UniProt Q9UDY4 1-337)", "T1 construct": "DnaJB4, human, full length; Expressed from pMCSG7 with a TEV site; also called WT DnaJB4; Class B JDP; source: E. coli BL21 (DE3) Rosetta, purified (Ni-NTA, TEV cleavage, SEC); not shown: His6, N-terminal, cleaved", "T1 sequence (Q9UDY4 whole entry)": "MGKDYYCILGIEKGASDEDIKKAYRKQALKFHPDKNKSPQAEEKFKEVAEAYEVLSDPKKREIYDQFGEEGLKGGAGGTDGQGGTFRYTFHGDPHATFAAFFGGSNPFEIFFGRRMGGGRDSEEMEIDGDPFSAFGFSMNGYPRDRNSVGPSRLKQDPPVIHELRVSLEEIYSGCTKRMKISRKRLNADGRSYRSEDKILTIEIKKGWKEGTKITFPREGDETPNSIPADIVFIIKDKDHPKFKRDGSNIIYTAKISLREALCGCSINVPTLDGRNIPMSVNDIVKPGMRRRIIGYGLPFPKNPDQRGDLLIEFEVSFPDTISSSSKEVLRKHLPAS", "assay": "fluorescence polarisation; saturation binding: 20 nM Hsp72 tracer with DnaJB4 (WT or QPD) 110 to 0.013 µM in 2X dilutions; 50 mM Tris, 15 mM NaCl, 1 mM DTT, 0.01% Triton X-100, pH 8.0; room temperature, 30 min"}, "[2]": {"target": "T1, DnaJB4 (recombinant, human, full …)", "assay": "fluorescence polarisation; competition: 100 µM unlabeled peptide, 5 µM DnaJB4, 20 nM Hsp72 tracer in JDP binding buffer; room temperature, 30 min; tracer displacement relative to DMSO control"}, "[3]": {"target": "B1", "assay": "fluorescence polarisation; saturation binding: 20 nM Hsp72 tracer with CHIP 110 to 0.013 µM in 2X dilutions; 50 mM HEPES, 50 mM KCl, 0.01% Triton X-100, pH 7.4; room temperature, 30 min"}},
  "note": "“And” between values parts separate entries of the source, which are not always exact repeats. Equal values may be shown once. Where no end group is shown, it is not given here. The star is where a group is joined. FITC = O=C1OC2(c3ccc(O)cc3Oc3cc(O)ccc32)c2ccc(NC(=S)*)cc21; Ahx = NCCCCCC(=O)O",
  "data": [
    {"binder": "{FITC-Ahx}-GSGPTIEEVD-OH (not fully specified; printed as FITC-Ahx-GSGPTIEEVD, last 10 residues of Hsp72/HSPA1A; also called EEVD tracer; fluorescent Hsp72 peptide; source: synthetic peptide, bought: GenScript)", "note": "[Hsp72 tracer FITC-Ahx-GSGPTIEEVD]", "values": [
      {"measurement": "Kd", "setting": "[1]", "result": "1910 nM and 1690 nM"}
    ]},
    {"binder": "Ac-GSGPTMEEVD-OH (peptide, UniProt P0DMV8 632-641, looked up, also called P5 Ile to Met mutant; source: synthetic peptide, bought: GenScript)", "note": "[Hsp72 10-mer peptide with the P5 Ile replaced by Met]", "values": [
      {"measurement": "binding result", "setting": "[2]", "result": "binds"}
    ]},
    {"binder": "Ac-PTIEEVD-OH (last 7 residues of Hsp72/HSPA1A; also called last 7 amino acids of Hsp70's C-terminus; source: synthetic peptide, bought: GenScript)", "note": "[Hsp72 C-terminal 7-mer peptide PTIEEVD]", "values": [
      {"measurement": "binding result", "setting": "[2]", "result": "binds"}
    ]},
    {"binder": "CHIP (recombinant human) (natural protein, UniProt Q9UNE7 1-303, looked up, CHIP, human; also called E3 ubiquitin ligase CHIP; TPR domain co-chaperone; source: E. coli BL21(DE3), purified (Ni-NTA, TEV cleavage, SEC); not shown: His6, N-terminal, cleaved) MKGKEEKEGGARLGAGGGSPEKSPSAQELKEQGNRLFVGRKYPEAAACYGRAITRNPLVAVYYTNRALCYLKMQQHEQALADCRRALELDGQSVKAHFFLGQCQLEMESYDEAIANLQRAYSLAKEQRLNFGDDIPSALRIAKKKRWNSIEERRIHQESELHSYLSRLIAAERERELEECQRNHEGDEDDSHVRAQQACIEAKHDKYMADMDELFSQVDEKRKKRDIPDYLCGKISFELMREPCITPSGITYDRKDIEEHLQRVGHFDPVTRSPLTQEQLIPNLAMKEVIDAFISENGWVEDY", "values": [
      {"measurement": "fold weakening of the affinity against the WT tracer", "setting": "[3]", "result": 5, "unit": "fold"}
    ]},
    {"binder": "B1", "values": [
      {"measurement": "binding result", "setting": "[1]", "result": "binds"}
    ]}
  ]
}
